Reference: the RNAGym collection of RNA variant scans (doi:10.7554/elife.90254)

B1: LINE1-full (parent)
chain: UACGUAGGUGGUUUUCCCCUGAUAGUGCUAAGGGGGCCUGGAAGUUUGGACUGGGCAGAGCUCAACACAGCGUGGCAAAGUGGCUGUGGCUAGACUGCCUCUCUGGAUUCCUCGUCACUCAGCAGGGCAUCUCUGAGAGAAAUGCC

Variants of: B1
Test: self-cleavage, relative activity (ratio to wild type); higher = more cleavage; in vitro, sequencing; the parent is a self-cleaving ribozyme

Row | Variant | self-cleavage
1 | UACGUAGGUGGUUUUCCCCUGAUAGUGCUAAGGGGGCCUGGAAGUUUGGACUGGGCAGAGCUCAACACAGCGUGGCGAAGUGGCUGUGGCUAGACUGCCUCUCUGGAUUCCUCGUCUCUCAGCAGGGCAUCUCUGAGAGAAAUGCC [A77G A117U] | 2.58
2 | UACGUAGGUGGUUUUCCCCUGAUAGUGCUAAGGGGGCCUGGAAGUUUGGACUGGGCAGAGCUCAACACAGCGUGGCGAAGUGGCUGUGGCUAGACUGCCUCUCUGGAUUCCUCGUCACUCUGCAGGGCAUCUCUGAGAGAAAUGCC [A77G A121U] | 2.74
3 | UACGUAGGUGGUUUUCCCCUGAUAGUGCUAAGGGGGCCUGGAAGUUUGGACUGGGCAGAGCUCAACACAGCGUGGCGAAGUGGCUGUGGCUAGACUGCCUCUCUGGAUUCCUCGUCACUCAGCAGGGCUUCUCUGAGAGAAAUGCC [A77G A129U] | 2
4 | UACGUAGGUGGUUUUCCCCUGAUAGUGCUAAGGGGGCCUGGAAGUUUGGACUGGGCAGAGCUCAACACAGCGUGGCGAAGUGGCUGUGGCUAGACUGCCUCUCUGGAUUCCUCGUCACUCAGCAGGGCAUCUCUGAGUGAAAUGCC [A77G A138U] | 2.56
5 | UACGUAGGUGGUUUUCCCCUGAUAGUGCUAAGGGGGCCUGGAAGUUUGGACUGGGCAGAGCUCAACACAGCGUGGCGAAGUGGCUGUGGCUAGACUGCCUCUCUGGAUUCCUCGUCACUCAGCAGGGCAUCUCUGAGAGGAAUGCC [A77G A140G] | 1.7
6 | UACGUAGGUGGUUUUCCCCUGAUAGUGCUAAGGGGGCCUGGAAGUUUGGACUGGGCAGAGCUCAACACAGCGUGGCGAAGUGGCUGUGGCUAGACUGCCUCUCUGGAUUCCUCGUCACUCAGCAGGGCAUCUCUGAGAGUAAUGCC [A77G A140U] | 2.21
7 | UACGUAGGUGGUUUUCCCCUGAUAGUGCUAAGGGGGCCUGGAAGUUUGGACUGGGCAGAGCUCAACACAGCGUGGCGAAGUGGCUGUGGCUAGACUGCCUCUCUGGAUUCCUCGUCACUCAGCAGGGCAUCUCUGAGAGAAGUGCC [A77G A142G] | 2.14
8 | UACGUAGGUGGUUUUCCCCUGAUAGUGCUAAGGGGGCCUGGAAGUUUGGACUGGGCAGAGCUCAACACAGCGUGGCGAAGUGGUUGUGGCUAGACUGCCUCUCUGGAUUCCUCGUCACUCAGCAGGGCAUCUCUGAGAGAAAUGCC [A77G C84U] | 0.25
9 | UACGUAGGUGGUUUUCCCCUGAUAGUGCUAAGGGGGCCUGGAAGUUUGGACUGGGCAGAGCUCAACACAGCGUGGCGAAGUGGCUGUGGCUAGACUGUCUCUCUGGAUUCCUCGUCACUCAGCAGGGCAUCUCUGAGAGAAAUGCC [A77G C98U] | 0.54
10 | UACGUAGGUGGUUUUCCCCUGAUAGUGCUAAGGGGGCCUGGAAGUUUGGACUGGGCAGAGCUCAACACAGCGUGGCGAAGUGGCUGUGGCUAGACUGCUUCUCUGGAUUCCUCGUCACUCAGCAGGGCAUCUCUGAGAGAAAUGCC [A77G C99U] | 1.01
11 | UACGUAGGUGGUUUUCCCCUGAUAGUGCUAAGGGGGCCUGGAAGUUUGGACUGGGCAGAGCUCAACACAGCGUGGCGAAGUGGCUGUGGCUAGACUGCCUCUCUGGAUUCCUCGUCACUCAGCAGGGCAUCUCUGAGAGAAAUGAC [A77G C145A] | 2.43
12 | UACGUAGGUGGUUUUCCCCUGAUAGUGCUAAGGGGGCCUGGAAGUUUGGACUGGGCAGAGCUCAACACAGCGUGGCGAAGUGGCUGUGGCUAGACUGCCUCUCUGGAUUCCUCGUCACUCAGCAGGGCAUCUCUGAGAGAAAUGUC [A77G C145U] | 2.12
13 | UACGUAGGUGGUUUUCCCCUGAUAGUGCUAAGGGGGCCUGGAAGUUUGGACUGGGCAGAGCUCAACACAGCGUGGCGAAAUGGCUGUGGCUAGACUGCCUCUCUGGAUUCCUCGUCACUCAGCAGGGCAUCUCUGAGAGAAAUGCC [A77G G80A] | 2.17
14 | UACGUAGGUGGUUUUCCCCUGAUAGUGCUAAGGGGGCCUGGAAGUUUGGACUGGGCAGAGCUCAACACAGCGUGGCGAAUUGGCUGUGGCUAGACUGCCUCUCUGGAUUCCUCGUCACUCAGCAGGGCAUCUCUGAGAGAAAUGCC [A77G G80U] | 2.02
15 | UACGUAGGUGGUUUUCCCCUGAUAGUGCUAAGGGGGCCUGGAAGUUUGGACUGGGCAGAGCUCAACACAGCGUGGCGAAGUAGCUGUGGCUAGACUGCCUCUCUGGAUUCCUCGUCACUCAGCAGGGCAUCUCUGAGAGAAAUGCC [A77G G82A] | 0.85
16 | UACGUAGGUGGUUUUCCCCUGAUAGUGCUAAGGGGGCCUGGAAGUUUGGACUGGGCAGAGCUCAACACAGCGUGGCGAAGUUGCUGUGGCUAGACUGCCUCUCUGGAUUCCUCGUCACUCAGCAGGGCAUCUCUGAGAGAAAUGCC [A77G G82U] | 2.49
17 | UACGUAGGUGGUUUUCCCCUGAUAGUGCUAAGGGGGCCUGGAAGUUUGGACUGGGCAGAGCUCAACACAGCGUGGCGAAGUGUCUGUGGCUAGACUGCCUCUCUGGAUUCCUCGUCACUCAGCAGGGCAUCUCUGAGAGAAAUGCC [A77G G83U] | 1.28
18 | UACGUAGGUGGUUUUCCCCUGAUAGUGCUAAGGGGGCCUGGAAGUUUGGACUGGGCAGAGCUCAACACAGCGUGGCGAAGUGGCUGUGGCUAGACUGCCUCUCUGAAUUCCUCGUCACUCAGCAGGGCAUCUCUGAGAGAAAUGCC [A77G G106A] | 2
19 | UACGUAGGUGGUUUUCCCCUGAUAGUGCUAAGGGGGCCUGGAAGUUUGGACUGGGCAGAGCUCAACACAGCGUGGCGAAGUGGCUGUGGCUAGACUGCCUCUCUGGAUUCCUCAUCACUCAGCAGGGCAUCUCUGAGAGAAAUGCC [A77G G114A] | 2.27
20 | UACGUAGGUGGUUUUCCCCUGAUAGUGCUAAGGGGGCCUGGAAGUUUGGACUGGGCAGAGCUCAACACAGCGUGGCGAAGUGGCUGUGGCUAGACUGCCUCUCUGGAUUCCUCGUCACUCAGCAGAGCAUCUCUGAGAGAAAUGCC [A77G G126A] | 2.42

Row | Variant | self-cleavage
21 | UACGUAGGUGGUUUUCCCCUGAUAGUGCUAAGGGGGCCUGGAAGUUUGGACUGGGCAGAGCUCAACACAGCGUGGCGAAGUGGCUGUGGCUAGACUGCCUCUCUGGAUUCCUCGUCACUCAGCAGGACAUCUCUGAGAGAAAUGCC [A77G G127A] | 2.11
22 | UACGUAGGUGGUUUUCCCCUGAUAGUGCUAAGGGGGCCUGGAAGUUUGGACUGGGCAGAGCUCAACACAGCGUGGCGAAGUGGCUGUGGCUAGACUGCCUCUCUGGAUUCCUCGUCACUCAGCAGGGCAUCUCUUAGAGAAAUGCC [A77G G135U] | 0.63
23 | UACGUAGGUGGUUUUCCCCUGAUAGUGCUAAGGGGGCCUGGAAGUUUGGACUGGGCAGAGCUCAACACAGCGUGGCGAAGUGGCUGUGGCUAGACUGCCUCUCUGGAUUCCUCGUCACUCAGCAGGGCAUCUCUGAAAGAAAUGCC [A77G G137A] | 2.66
24 | UACGUAGGUGGUUUUCCCCUGAUAGUGCUAAGGGGGCCUGGAAGUUUGGACUGGGCAGAGCUCAACACAGCGUGGCGAAGUGGCUGUGGCUAGACUGCCUCUCUGGAUUCCUCGUCACUCAGCAGGGCAUCUCUGAGAAAAAUGCC [A77G G139A] | 1.52
25 | UACGUAGGUGGUUUUCCCCUGAUAGUGCUAAGGGGGCCUGGAAGUUUGGACUGGGCAGAGCUCAACACAGCGUGGCGAAGAGGCUGUGGCUAGACUGCCUCUCUGGAUUCCUCGUCACUCAGCAGGGCAUCUCUGAGAGAAAUGCC [A77G U81A] | 2.73
26 | UACGUAGGUGGUUUUCCCCUGAUAGUGCUAAGGGGGCCUGGAAGUUUGGACUGGGCAGAGCUCAACACAGCGUGGCGAAGCGGCUGUGGCUAGACUGCCUCUCUGGAUUCCUCGUCACUCAGCAGGGCAUCUCUGAGAGAAAUGCC [A77G U81C] | 2.1
27 | UACGUAGGUGGUUUUCCCCUGAUAGUGCUAAGGGGGCCUGGAAGUUUGGACUGGGCAGAGCUCAACACAGCGUGGCGAAGUGGCAGUGGCUAGACUGCCUCUCUGGAUUCCUCGUCACUCAGCAGGGCAUCUCUGAGAGAAAUGCC [A77G U85A] | 0.06
28 | UACGUAGGUGGUUUUCCCCUGAUAGUGCUAAGGGGGCCUGGAAGUUUGGACUGGGCAGAGCUCAACACAGCGUGGCGAAGUGGCCGUGGCUAGACUGCCUCUCUGGAUUCCUCGUCACUCAGCAGGGCAUCUCUGAGAGAAAUGCC [A77G U85C] | 0.25
29 | UACGUAGGUGGUUUUCCCCUGAUAGUGCUAAGGGGGCCUGGAAGUUUGGACUGGGCAGAGCUCAACACAGCGUGGCGAAGUGGCGGUGGCUAGACUGCCUCUCUGGAUUCCUCGUCACUCAGCAGGGCAUCUCUGAGAGAAAUGCC [A77G U85G] | 0.2
30 | UACGUAGGUGGUUUUCCCCUGAUAGUGCUAAGGGGGCCUGGAAGUUUGGACUGGGCAGAGCUCAACACAGCGUGGCGAAGUGGCUGAGGCUAGACUGCCUCUCUGGAUUCCUCGUCACUCAGCAGGGCAUCUCUGAGAGAAAUGCC [A77G U87A] | 0.09
31 | UACGUAGGUGGUUUUCCCCUGAUAGUGCUAAGGGGGCCUGGAAGUUUGGACUGGGCAGAGCUCAACACAGCGUGGCGAAGUGGCUGCGGCUAGACUGCCUCUCUGGAUUCCUCGUCACUCAGCAGGGCAUCUCUGAGAGAAAUGCC [A77G U87C] | 0.42
32 | UACGUAGGUGGUUUUCCCCUGAUAGUGCUAAGGGGGCCUGGAAGUUUGGACUGGGCAGAGCUCAACACAGCGUGGCGAAGUGGCUGUGGCCAGACUGCCUCUCUGGAUUCCUCGUCACUCAGCAGGGCAUCUCUGAGAGAAAUGCC [A77G U91C] | 0
33 | UACGUAGGUGGUUUUCCCCUGAUAGUGCUAAGGGGGCCUGGAAGUUUGGACUGGGCAGAGCUCAACACAGCGUGGCGAAGUGGCUGUGGCUAGACCGCCUCUCUGGAUUCCUCGUCACUCAGCAGGGCAUCUCUGAGAGAAAUGCC [A77G U96C] | 0.18
34 | UACGUAGGUGGUUUUCCCCUGAUAGUGCUAAGGGGGCCUGGAAGUUUGGACUGGGCAGAGCUCAACACAGCGUGGCGAAGUGGCUGUGGCUAGACGGCCUCUCUGGAUUCCUCGUCACUCAGCAGGGCAUCUCUGAGAGAAAUGCC [A77G U96G] | 0.16
35 | UACGUAGGUGGUUUUCCCCUGAUAGUGCUAAGGGGGCCUGGAAGUUUGGACUGGGCAGAGCUCAACACAGCGUGGCGAAGUGGCUGUGGCUAGACUGCCCCUCUGGAUUCCUCGUCACUCAGCAGGGCAUCUCUGAGAGAAAUGCC [A77G U100C] | 2.88
36 | UACGUAGGUGGUUUUCCCCUGAUAGUGCUAAGGGGGCCUGGAAGUUUGGACUGGGCAGAGCUCAACACAGCGUGGCGAAGUGGCUGUGGCUAGACUGCCUCCCUGGAUUCCUCGUCACUCAGCAGGGCAUCUCUGAGAGAAAUGCC [A77G U102C] | 1.96
37 | UACGUAGGUGGUUUUCCCCUGAUAGUGCUAAGGGGGCCUGGAAGUUUGGACUGGGCAGAGCUCAACACAGCGUGGCGAAGUGGCUGUGGCUAGACUGCCUCUCGGGAUUCCUCGUCACUCAGCAGGGCAUCUCUGAGAGAAAUGCC [A77G U104G] | 1.87
38 | UACGUAGGUGGUUUUCCCCUGAUAGUGCUAAGGGGGCCUGGAAGUUUGGACUGGGCAGAGCUCAACACAGCGUGGCGAAGUGGCUGUGGCUAGACUGCCUCUCUGGAUACCUCGUCACUCAGCAGGGCAUCUCUGAGAGAAAUGCC [A77G U109A] | 1.75
39 | UACGUAGGUGGUUUUCCCCUGAUAGUGCUAAGGGGGCCUGGAAGUUUGGACUGGGCAGAGCUCAACACAGCGUGGCGAAGUGGCUGUGGCUAGACUGCCUCUCUGGAUCCCUCGUCACUCAGCAGGGCAUCUCUGAGAGAAAUGCC [A77G U109C] | 1.51
